From the supplement of paper PMC12042874 come the findings set out here.

± gives the uncertainty stated by the source.

A short description of the series: amyloid nucleation score (Sup35N fusion, yeast selection) (log enrichment); library NNK3; higher = more nucleation; inactive = no reads after selection. An outline of the steps:
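Sup35N fusions to peptides of 20 random codons were expressed in psi-negative yeast, induced 24 hours with 100 μM copper sulfate, and grown 7 days at 30°C on medium lacking adenine and uracil. Input and output plasmid inserts were sequenced by Illumina. The nucleation score is the DiMSum log enrichment of output over input reads, centred on the mode score of non-aggregating sequences. Sequences with under 100 input reads were excluded.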
HWGRDFLGFVTAFDGCVSQL: the amyloid nucleation score result was “inactive”.
LMLLIFAWFQILTVRIRLFR: the amyloid nucleation score entry is “inactive”.
For the substance NSSAYFFDAAGSTRLDQASY, the amyloid nucleation score result is “inactive”.
Turning to RYFVRYVRSVLTSG, the amyloid nucleation score entry is “inactive”.
Regarding LINEECFFACVEVIGNVFRV, the amyloid nucleation score is -0.888 ± 1.1.
In turn, SLCWSLNGFNLLISFDFRRN registered an amyloid nucleation score of 0.785 ± 0.14.
For the substance FRSRRARGKNGIEMRILRHQ, the amyloid nucleation score was -0.109 ± 0.69.
In the case of RTSRT, the amyloid nucleation score result is “inactive”.
As for EELLRGFGAVGSWLNLSLEV, the entry is “inactive”.
As for GFRYLRTDNYMPCRGESVGW, the entry is “inactive”; as for VRSPPVPLNCVE, “inactive”; as for LSVFDMGIRKM, “inactive”.
Consider RRDPDPTLIPG, for which the amyloid nucleation score entry was “inactive”.
As for VVQSGRAFRCYRCSLEVQTE, the entry is “inactive”.
SPPSQYSVDQIFHMSWLVYY: the amyloid nucleation score result is “inactive”.
As for SSTLHRQIRRGVTVNELLRG, the amyloid nucleation score result is “inactive”.
In the case of RLDPLVDFANDLMTSYSR, the amyloid nucleation score result was “inactive”.
As to RRSVAFLPYMSW, the amyloid nucleation score entry is “inactive”.
In the case of VGNFLTLSVWDNSGRRIGEE it was 0.705 ± 0.19; in that of LDIDSFYCVLR, 1.23 ± 0.12.
As to DLPVGLWKQESLSAGMYNSW, the amyloid nucleation score entry was “inactive”.
Regarding PIPLIPFE, the amyloid nucleation score result is “inactive”.
Consider WLTYYIDFRVILSFQSVRDY, for which the amyloid nucleation score result is “inactive”.
As for ILFLNHDMWQCDNDSLKAIH, the amyloid nucleation score entry is “inactive”.
In the case of MVQRSMKARILFCKVNFLCA it was 1.16 ± 0.15.
ILKYCQTSLRGERPILLLDF: the amyloid nucleation score result was “inactive”.
In the case of VPLPEGFHNRTSNCIFFINE it was 0.932 ± 0.12; in that of FFYYMYMFDVITILRVIMGC, “inactive”; in that of IRVSVVRSICMQSGRCEYQA, 1.21 ± 0.15.
QAVTMRTGVKCYQIGRAWIG registered an amyloid nucleation score of -0.313 ± 0.84.
Take DPVEIRG: the amyloid nucleation score entry was “inactive”.
Regarding RCFSRRSCCGSVVWTVRVRH, the amyloid nucleation score result was “inactive”.
As for DRHLAINERARLVAWFYYDF, the entry is “inactive”; as for SSTNPGIH, “inactive”.
With GKLLP, the amyloid nucleation score result was “inactive”.
Regarding LLMYARYSG, the amyloid nucleation score was determined as 1.52 ± 0.11.
Turning to CSISSKIFLLLMNWLCWSCG, the amyloid nucleation score result is “inactive”.
For the substance SVVPQDDILLNCGLEQAILG, the amyloid nucleation score result was “inactive”.
Turning to VVYIRWYIRLLRHNIVSILS, the amyloid nucleation score result was “inactive”.
As to GGLLWAKCVMLILYYVPMGL, the amyloid nucleation score result is “inactive”.
Take IMEFYERMLFL: the amyloid nucleation score result is “inactive”.
As for SKACAVLAYNLVGFEFHFEF, the figure is 1.69 ± 0.074.
With RFYLDLEQQHLEIVGESR, the amyloid nucleation score result was “inactive”.
As for RHLIAFVVNNSFLVDYDSIS, the entry is “inactive”; as for IWNLWFRTFCT, 0.519 ± 0.25; as for SLSSIGSDFNGGC, “inactive”.
With TPMRHYKY, the amyloid nucleation score entry was “inactive”.
For WLLPQKGLMG, the amyloid nucleation score result is “inactive”.
With TRVIRLGGMALSFVFTIISC, the amyloid nucleation score entry was “inactive”.
The substance FQMKCNFWKI displayed an amyloid nucleation score of 1.24 ± 0.077.
NDYCPLYIGHVGRFHPAKDV: the amyloid nucleation score result is “inactive”.
In the case of KSAWLRLCIVR it was “inactive”.
In the case of AQRVMD, the amyloid nucleation score result was “inactive”.
With GMRCEYMILTFGLSWKLLLI, the amyloid nucleation score result is “inactive”.
With FMAQPSLIGLFRSQS, the amyloid nucleation score entry was “inactive”.
For the substance TGRYVNWRASLSFAYNRMMI, the amyloid nucleation score entry is “inactive”.
Regarding MMYNVMVSSRLMRLCFSRRV, the amyloid nucleation score result is “inactive”.
For the substance LSLNLSLNMKVKLYVYWGYR, the amyloid nucleation score result is “inactive”.
On to CERKQVYNDRRINS, for which the amyloid nucleation score entry is “inactive”.
With NYVPQSGYNVDNVLNILTKL, the amyloid nucleation score result was “inactive”.
LLWKKRVEEDSWLHTGSERM returned an amyloid nucleation score of 0.904 ± 0.15.
As for LYCECYSSLLCYGRLPAKTR, the entry is “inactive”; as for CGRRALSTELIVCLCSPFYV, “inactive”.
With KFTMTPWDPLCLCVRSDIDL, the amyloid nucleation score result was “inactive”.
In the case of SKSHLTIVSSYDHFHYMVRV it was “inactive”.
In the case of CLEPNILVLIMEFVY it was “inactive”.
On to FCHRYEMYIELTYTEGA, for which the amyloid nucleation score result is “inactive”.
As for PTYAC, the amyloid nucleation score entry is “inactive”.
Take LLFTCQSDKDYVRFFVQFNW: the amyloid nucleation score entry was “inactive”.
For SCFKDDCVGLLYYQSWSNDS, the amyloid nucleation score came out at 0.501 ± 0.33.
As for CRGYADFT, the entry is “inactive”; as for MVGAPDV, “inactive”.
Regarding LSCCSSGGGSTPVIAPTYYE, the amyloid nucleation score entry is “inactive”.
On to PNGHLLYMYFFMRDGSSDRG, for which the amyloid nucleation score result is “inactive”.
Turning to CFAIWVCKSVR, the amyloid nucleation score entry was “inactive”.
With FVFIFWTLFGRSRVDVASNM, the amyloid nucleation score entry is “inactive”.
Consider IVCMLQFEVVVLHACRFESK, for which the amyloid nucleation score entry is “inactive”.
In the case of IMSRCKNSYASLATVSCRSL, the amyloid nucleation score result was “inactive”.
In the case of PLLGSIFRFWWRGDTLMYRL it was “inactive”; in that of CGIYTFLRLRD, “inactive”.
Take NSASSFCPRRLCYGRRQEDL: the amyloid nucleation score result was “inactive”.
Take KICWYELNLDNSLVLLGRRY: the amyloid nucleation score was 1.78 ± 0.084.
For NGFGSNNVGSGERLADVAVI, the amyloid nucleation score result was “inactive”.
Turning to SDIGVCSLKICSTIILVANM, the amyloid nucleation score entry is “inactive”.
With VYVHLRNLQSL, the amyloid nucleation score result is “inactive”.
Turning to LVPFLVDIHVGWDISLKVVR, the amyloid nucleation score result is “inactive”.
In the case of SGFILSCMLNPGTFTNDLMG, the amyloid nucleation score entry was “inactive”.
In the case of VLTVEMLHAWNCG it was “inactive”; in that of SRFLLRNCPFLSGHVFTSQT, “inactive”; in that of RLYVLAGITLTMTSTTKRSL, “inactive”.
Consider SINDLGLWNVTVKFLCK, for which the amyloid nucleation score is -0.037 ± 0.63.
In the case of RASFLSFCFSMAGFSLFDIK it was “inactive”; in that of ESKMGCP, “inactive”.
The substance KLILKYCIRCQNGYDSARMS showed an amyloid nucleation score of -0.291 ± 0.5.
Take FVMGGGNGGHVGYMCFCEEV: the amyloid nucleation score entry is “inactive”.
DYDYTRFPVITV: the amyloid nucleation score result was “inactive”.
For the substance FCLCAFSALQRVYI, the amyloid nucleation score entry is “inactive”.
Regarding FSCSDLWGRSTLDKGYSFFR, the amyloid nucleation score entry is “inactive”.
For VLSEESNYAKM, the amyloid nucleation score result was “inactive”.
In the case of QICTQFRSG it was “inactive”; in that of LSAATYPL, “inactive”.
As for NINVRTELVQRKGNILP, the figure is 0.213 ± 0.17; as for VDNHAFKAFKHLGSSLMADR, “inactive”.
With TVTCRVQRHLDLN, the amyloid nucleation score result is “inactive”.
In the case of TVHAYLFCGTAVMTVRSSVV, the amyloid nucleation score entry is “inactive”.
For the substance KSLKTRYSPSVYFDFYLHYG, the amyloid nucleation score was determined as 1.07 ± 0.15.
With MIACNSRRCI, the amyloid nucleation score entry is “inactive”.
For DSFLVYIKSCIIILTGLNLY, the amyloid nucleation score result was “inactive”.
As for IFNLHWDTMLSIHMSIDALR, the figure is 1.91 ± 0.1; as for GFEVNKACQLIEYPLFFTRL, “inactive”; as for TNVAHSKSSHHAYFIDWIGQ, “inactive”.
On to RVIGKCPHSRNCTPA, for which the amyloid nucleation score entry is “inactive”.
Consider GKEKCTMNSHATLRVDVEMT, for which the amyloid nucleation score result is “inactive”.
In the case of RVVNRFRNCWK it was 0.717 ± 0.19; in that of DITAG, “inactive”; in that of CPYLLNVIMWAIFRSANFVA, “inactive”.
Regarding TRFSVDVRIFWIINYFLWLL, the amyloid nucleation score result is “inactive”.
Regarding VFHWSKLSFVEYHGKCGRSS, the amyloid nucleation score result is “inactive”.
On to FAYLVS, for which the amyloid nucleation score entry is “inactive”.
As for KCRVG, the amyloid nucleation score result was “inactive”.
In the case of YLMVNICMNDPWVYEMVSLY it was 0.902 ± 0.2.
For the substance LSGFDFAL, the amyloid nucleation score entry is “inactive”.
As for DISKFNDSLSPSELSGLIFS, the amyloid nucleation score entry is “inactive”.
For KLAVFYFVVLVFRGERISSC, the amyloid nucleation score entry is “inactive”.
In the case of LQYWSFKSSSYGGLDIYCEA, the amyloid nucleation score entry is “inactive”.
In the case of CFKRLVIIMGGLGAA it was “inactive”; in that of NLCQSAGRFCWG, “inactive”; in that of VSIDSSFLHRSLLS, “inactive”.
As for SGKHPSYNREPKGSVSVLGA, the entry is “inactive”; as for WTDVRGMVSSINGRSTSRVP, “inactive”.
As to VTFAARLTYKSILDILCMME, the amyloid nucleation score result is “inactive”.
